Test results reported in US20110190477A1 (G2 INFLAMMATION, published 2011).

Columns and labels:
human C5a receptor [1] = target: T1, human C5a receptor (human, UniProt P21730 1-350); experiment: flow cytometry of bound hAb-Q (anti-hIgG-FITC) on human neutrophils, pre-chemotaxis samples
T1 construct: On human neutrophils, L1.2/hC5aR transfectants or neutrophils of hC5aR knock-in mice; also called hC5aR; C5aR1
T1 chain: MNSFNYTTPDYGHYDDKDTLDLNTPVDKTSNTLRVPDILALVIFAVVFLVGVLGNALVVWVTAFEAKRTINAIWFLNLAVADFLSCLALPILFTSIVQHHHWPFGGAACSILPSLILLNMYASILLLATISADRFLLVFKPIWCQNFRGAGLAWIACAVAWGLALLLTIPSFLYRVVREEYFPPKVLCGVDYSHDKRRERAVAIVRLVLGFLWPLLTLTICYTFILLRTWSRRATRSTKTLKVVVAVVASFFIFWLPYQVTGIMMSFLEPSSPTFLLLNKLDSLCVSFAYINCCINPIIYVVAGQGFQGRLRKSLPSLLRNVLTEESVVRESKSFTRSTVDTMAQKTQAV
Protocol: The FACSCalibur flow cytometer was set up with compensation parameters established for channel FL-1. Samples were acquired to exclude dead cells and debris. Neutrophils were identified based on FSC and SSC. The level of bound hAb-Q (anti-hIgG-FITC) or free C5aR (hAb-Q-FITC) was determined by determining the FITC (FL-1) mean fluorescence intensity (MFI) of the neutrophils in a sample.
Four experiments were carried out. Briefly, purified neutrophils isolated from the venous blood of a healthy volunteer were preincubated for 10 min with hAb-Q at concentrations ranging from 0.001 to 100 μg/ml. A small aliquot of this mix was taken to determine the amount of antibody bound receptor (% receptor occupancy) and the remainder was placed in the upper chamber of a transwell plate. C5a (10 nM) was placed in the lower chamber. After 30 min incubation, the number of cells that had migrated into the lower chamber was determined using FACS. The amount of bound antibody on the neutrophils in both the lower and upper chambers at the end of migration was also determined, using FITC-labelled anti-hIgG and flow cytometry. The level of free receptor (no bound antibody) was determined in one experiment by incubating the neutrophils with FITC-labelled hAb-Q before and after migration.

human C5a receptor [2] = target: T1, human C5a receptor; experiment: PK/PD model (NONMEM) fitted to serum concentration and receptor occupancy in hC5aR transgenic mice, toxicology study column
Description: NONMEM VI (non-linear mixed effects modelling software) with first order conditional estimation (FOCE) was used for modelling, and S-PLUS® 8.0 (Insigthful) was used for graphics and data handling. Evaluation of—and discrimination between—intermediate models was based on objective function values and standard graphical evaluation methods. In terms of objective function value, changes in this value were assumed to be chi-squared distributed (for nested models), and criteria for expanding the model were defined and used accordingly.
Toxicokinetics from the toxicology study in transgenic mice and PK/PD data from the pharmacology study was integrated to assess the relationship between pharmacokinetics and occupancy. […] This is consistent with other studies, observing higher clearance for high doses, due to saturation of the FcRN receptor (Hansen and Balthasar, 2002).

human C5a receptor [3] = target: T1, human C5a receptor; experiment: cell-based or functional assay

B1: humanized anti-C5aR antibody hAb-Q (antibody, human IgG4 S228P, kappa)
light: DVVMTQSPLSLPVTLGEPASISCRSSQSLVHSNGNTYLHWYLQKPGQSPQLLIYKVSNRFSGVPDRFSGSGSGTDFTLKISRVEAEDVGVYFCSQSTLVPLTFGQGTKLEIKRTVAAPSVFIFPPSDEQLKSGTASVVCLLNNFYPREAKVQWKVDNALQSGNSQESVTEQDSKDSTYSLSSTLTLSKADYEKHKVYACEVTHQGLSSPVTKSFNRGEC
heavy: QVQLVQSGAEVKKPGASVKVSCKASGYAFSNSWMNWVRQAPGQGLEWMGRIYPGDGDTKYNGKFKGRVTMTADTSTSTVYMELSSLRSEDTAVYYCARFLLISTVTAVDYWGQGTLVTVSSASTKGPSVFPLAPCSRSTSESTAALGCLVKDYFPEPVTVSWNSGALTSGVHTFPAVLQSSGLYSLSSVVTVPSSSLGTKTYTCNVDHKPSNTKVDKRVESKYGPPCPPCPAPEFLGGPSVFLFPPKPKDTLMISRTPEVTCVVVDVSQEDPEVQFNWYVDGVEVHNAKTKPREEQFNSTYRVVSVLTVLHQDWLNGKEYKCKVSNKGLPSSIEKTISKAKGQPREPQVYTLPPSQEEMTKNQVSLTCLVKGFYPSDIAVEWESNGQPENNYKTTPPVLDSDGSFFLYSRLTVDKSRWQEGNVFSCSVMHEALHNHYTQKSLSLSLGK
notes: IgG4 with the Ser228Pro mutation; also called antibody Q; anti-C5aR ab
Human C5a receptor [1]
  EC50: 0.3 µg/mL
Human C5a receptor [2]
  Kd: 0.175 µg/mL
Human C5a receptor [3]
  Ab conc. tested but not effective at blocking Ca2+-flux (human neutrophils, 1 nM C5a): 0.5 µg/mL
